# Patent publication US20200123221A1 (published 2020)
# B1: R16P1E8 (TCR, V domains shown)
# Valpha: QKEVEQDPGPLSVPEGAIVSLNCTYSNSAFQYFMWYRQYSRKGPELLMYTYSSGNKEDGRFTAQVDKSSKYISLFIRDSQPSDSATYLCAMSEAAGNKLTFGGGTRVLVKP
# Vbeta: EAGVAQSPRYKIIEKRQSVAFWCNPISGHATLYWYQQILGQGPKLLIQFQNNGVVDDSQLPKDRFSAERLKGVDSTLKIQPAKLEDSAVYLCASSYTNQGEAFFGQGTRLTVV
# B2: R17P1D7 (TCR, V domains shown)
# Valpha: AQTVTQSQPEMSVQEAETVTLSCTYDTSESDYYLFWYKQPPSRQMILVIRQEAYKQQNATENRFSVNFQKAAKSFSLKISDSQLGDAAMYFCAYRWAQGGSEKLVFGKGTKLTVNP
# Vbeta: EADIYQTPRYLVIGTGKKITLECSQTMGHDKMYWYQQDPGMELHLIHYSYGVNSTEKGDLSSESTVSRIRTEHFPLTLESARPSHTSQYLCATELWSSGGTGELFFGEGSRLTVL
# B3: R17P1A9 (TCR, V domains shown)
# Valpha: QKEVEQNSGPLSVPEGAIASLNCTYSDRGSQSFFWYRQYSGKSPELIMSIYSNGDKEDGRFTAQLNKASQYVSLLIRDSQPSDSATYLCAVLNQAGTALIFGKGTTLSVSS
# Vbeta: DSGVTQTPKHLITATGQRVTLRCSPRSGDLSVYWYQQSLDQGLQFLIQYYNGEERAKGNILERFSAQQFPDLHSELNLSSLELGDSALYFCASSAETGPWLGNEQFFGPGTRLTVL
# Experiments:
# [1] = molecular target: T1, PRAME (PRAME-004) peptide on HLA-A*02:01 (human); test: IFN-gamma release; RNA-electroporated CD8+ T cells; T2 cells loaded with 10 µM to 10 pM peptide (FIG. 17); full-length, on cells
# T1 peptide: SLLQHLIGL
# [2] = molecular target: T1, PRAME (PRAME-004) peptide on HLA-A*02:01; test: IFN-gamma release; RNA-electroporated CD8+ T cells; T2 cells loaded with 10 µM to 10 pM peptide (FIG. 18); full-length, on cells
# [3] = molecular target: T1, PRAME (PRAME-004) peptide on HLA-A*02:01; test: multimer staining
binder,measurement,setting,value
B1,EC50 of peptide,[1],~1000 nM
B2,EC50 of peptide,[2],1.83 nM
B3,binding result,[3],recognises
